# Test results: PMC3919167
# Biological target: Bacteriophage P23-77 small major capsid protein VP16, recombinant (bacteriophage P23-77)
# Experiment: SEC
substance,measurement,value
"Bacteriophage P23-77 small major capsid protein VP16, recombinant (natural protein)",stoichiometry N,2
